Assays:
[1] = molecular target: T1, human Mac-1 (integrin αMβ2, CD11b/CD18) (human, UniProt P11215 17-1152; P05107 23-769); assay: flow cytometry, HEK293/Mac-1 cells, PBS/MnCl2 (Mn2+), 10 µg/ml of this antibody; binding of reporter mAb KIM127 read
Description: (§1) The HEK293/Mac-1 cells (clone1-4) were counted and washed twice with staining buffer (PBS containing 1% FBS, and 0.1% sodium azide). Cells were adjusted at a concentration of 1×10⁵ cells/ml in staining buffer and treated with/without 0.25 mM MnCl₂ (Sigma). Cells were treated with anti-Mac-1 antibodies and fluorescent conjugated anti-human IgG4 antibodies and incubated for 15 mins. After washing with the staining buffer, the cells were analyzed by flow cytometry. In some examples, these cells were treated with the antibodies (ICRF44, KIM127, m24, or isotype control) in the presence or absence 10 μg/ml anti-Mac-1 antibodies. The cells were then incubated at 37° C. for 30 min. After washing with the staining buffer, the cells were analyzed by flow cytometry.
(§2) TABLE IV The anti-Mac-1 antibody can serve as an antagonist to reduce the conformational change of Mac-1. HEK293/Mac-1 cells (clone1-4) were incubated with 10 μg/ml anti-Mac-1 antibodies under the PBS/MnCl₂ (Mn²⁺) condition. Binding of KIM127 or m24 was detected using flow cytometry.

[2] = molecular target: T1, human Mac-1 (integrin αMβ2, CD11b/CD18); assay: flow cytometry, HEK293/Mac-1 cells, PBS/MnCl2 (Mn2+), 10 µg/ml of this antibody; binding of reporter mAb m24 read
Description: as §1, §2

[3] = molecular target: T1, human Mac-1 (integrin αMβ2, CD11b/CD18); assay: flow cytometry, HEK293/Mac-1 cells (clone 1-4), PBS/MnCl2 (Mn2+)
Description: as §1
(§3) TABLE II The anti-Mac-1 antibodies selectively bind to different statuses of human Mac-1. HEK293/Mac-1 cells (clone1-4) were incubated in PBS (Mock), or PBS/MnCl₂ (Mn²⁺). Binding of isotype control IgG, the CD11b specific mAb (ICRF44), the CD11b activation-sensing mAb (CBRM1/5), or the screened anti-Mac-1 antibody was detected using flow cytometry.

[4] = molecular target: T1, human Mac-1 (integrin αMβ2, CD11b/CD18); assay: flow cytometry, HEK293/Mac-1 cells, PBS (Mock), 10 µg/ml of this antibody; binding of reporter mAb KIM127 read
Description: as §1
(§4) TABLE III The anti-Mac-1 antibodies can serve as agonist to enhance the conformational change of Mac-1. HEK293/Mac-1 cells (clone1-4) were incubated with 10 μg/ml anti-Mac-1 antibodies under the PBS (Mock) condition. Binding of KIM127 or m24 was detected using flow cytometry.

[5] = molecular target: T1, human Mac-1 (integrin αMβ2, CD11b/CD18); assay: flow cytometry, HEK293/Mac-1 cells, PBS (Mock), 10 µg/ml of this antibody; binding of reporter mAb m24 read
Description: as §1, §4

[6] = molecular target: T1, human Mac-1 (integrin αMβ2, CD11b/CD18); assay: flow cytometry, HEK293/Mac-1 cells (clone 1-4), PBS (Mock)
Description: as §1, §3

[7] = molecular target: T1, human Mac-1 (integrin αMβ2, CD11b/CD18); assay: flow cytometry, HEK293/Mac-1 cells; MFI in PBS over MFI in PBS/MnCl2
Description: as §1, §3

| Binder | KIM127 (Expression relative to IgG4) [1] | m24 (Expression relative to IgG4) [2] | Mn^2+ MFI [3] | KIM127 (Expression relative to IgG4) [4] | m24 (Expression relative to IgG4) [5] | Mock MFI [6] | Mock/Mn^2+ Ratio [7] |
| --- | --- | --- | --- | --- | --- | --- | --- |
| anti-Mac-1 antibody clone 25A04 (antibody, human IgG4, V domains shown) VH: EVQLVESGGGLVQPGGSLRLSCAASGFTFSFTAMHWVRQAPGKGLEWVSAIIYNGSEADYADSVKGRFTISRDNSKNTLYLQMNSLRAEDTAVYYCARANDYDHGCCDNYAMDYWGQGTLVTVSS VL: DIQMTQSPSSLSASVGDRVTITCRASQGIGSYLYWYQQKPGKAPKLLIYDASNLQSGVPSRFSGSGSGTDFTLTISSLQPEDFATYYCMQHGGWPLTFGQGTKVEIK | 1.34 relative to IgG4 | 2.11 relative to IgG4 | 65800 MFI | 1.58 relative to IgG4 | 9.33 relative to IgG4 | 39600 MFI | 0.6 |
| anti-Mac-1 antibody clone DF4M-31 (antibody, human IgG4, V domains shown) VH: EVQLVESGGGLVQPGGSLRLSCAASGFTFTSATMSWVRQAPGKGLEWVSIISPGGSETYYADSVKGRFTISRDNSKNTLYLQMNSLRAEDTAVYYCARGGDYPSYYMDPWGQGTLVTVSS VL: DIQMTQSPSSLSASVGDRVTITCRASQSISNYLAWYQQKPGKAPKLLIYGTSSLQSGVPSRFSGSGSGTDFTLTISSLQPEDFATYYCQQGHQWPWTFGQGTKVEIK | 1.48 relative to IgG4 | 3.87 relative to IgG4 | 13000 MFI | 1.13 relative to IgG4 | 3.77 relative to IgG4 | 4630 MFI | 0.36 |
| anti-Mac-1 antibody clone 25A06 (antibody, human IgG4, V domains shown) VH: EVQLVESGGGLVQPGGSLRLSCAASGFTFSSYYMSWVRQAPGKGLEWVSTINYDGSEKDYADSVKGRFTISRDNSKNTLYLQMNSLRAEDTAVYYCARDRLGNYPWFDVWGQGTLVTVSS VL: DIQMTQSPSSLSASVGDRVTITCRASQSISNYLAWYQQKPGKAPKLLIYDANNLQSGVPSRFSGSGSGTDFTLTISSLQPEDFATYYCQQSYSWPLTFGQGTKVEIK | 1.74 relative to IgG4 | 3.5 relative to IgG4 | 39400 MFI | 1.92 relative to IgG4 | 16.8 relative to IgG4 | 28500 MFI | 0.72 |
| anti-Mac-1 antibody clone DF4-22 (antibody, human IgG4, V domains shown) VH: EVQLVESGGGLVQPGGSLRLSCAASGFTFTDYNVHWVRQAPGKGLEWVSGINSSGSETNYADSVKGRFTISRDNSKNTLYLQMNSLRAEDTAVYYCARDSVFKTVGGYDAVMDYWGQGTLVTVSS VL: DIQMTQSPSSLSASVGDRVTITCRASQSIYNYLAWYQQKPGKAPKLLIYGTSTLQSGVPSRFSGSGSGTDFTLTISSLQPEDFATYYCMQSYSSPTTFGQGTKVEIK | 1.64 relative to IgG4 | 4.37 relative to IgG4 | 35200 MFI | 1.82 relative to IgG4 | 15.7 relative to IgG4 | 24400 MFI | 0.69 |
| anti-Mac-1 antibody clone 24H01 (antibody, human IgG4, V domains shown) VH: EVQLVESGGGLVQPGGSLRLSCAASGFTFNNYYMSWVRQAPGKGLEWVSIIYYDGSEADYADSVKGRFTISRDNSKNTLYLQMNSLRAEDTAVYYCARNKDIYSVYGMDYWGQGTLVTVSS VL: DIQMTQSPSSLSASVGDRVTITCRASQSISNYLAWYQQKPGKAPKLLIYATSNLQSGVPSRFSGSGSGTDFTLTISSLQPEDFATYYCQQANNTPPTFGQGTKVEIK | 1.49 relative to IgG4 | 2.36 relative to IgG4 | 23900 MFI | 1.05 relative to IgG4 | 1.92 relative to IgG4 | 9940 MFI | 0.42 |
| anti-Mac-1 antibody clone 28E07 (antibody, human IgG4, V domains shown) VH: QVQLQQSGPELVKPGASVKISCKASGYSFTDYNMNWVKQSNGKSLEWIGEINPGYGTSRYNQKFKDKATLTVDQSSTTAYMQLNSLTSEDSAVYYCARADVDYGDVMDYWGQGTTVTVSS VL: DIELTQSPAIMSASPGEKVTMTCSASSSVSYMHWYQQKSGTSPKRWIYDTSKLASGVPTRFSGSGSGTSYSLTISSMEAEDAATYYCQQWSSNPPTFGAGTKLELK | 0.65 relative to IgG4 | 0.85 relative to IgG4 | 56400 MFI | 0.98 relative to IgG4 | 0.63 relative to IgG4 | 53400 MFI | 0.95 |
| anti-Mac-1 antibody clone 28A12 (antibody, human IgG4, V domains shown) VH: QVKLQESGPELVKPGASVKISCKASGYSFTDYNMNWVKQSNGKSLEWIGEINPGYGTSRYNQKFKDKATLTVDQSSSTAYMQLNSLTSEDSAVYYCARADVDYGDTMDYWGQGTTVTVSS VL: DIELTQSPAIMSASPGEKVTMTCSASSSVSDMHWYQQKSGNSPKRWIYDTSKLASGVPVRFSGSGSGTSYSLTISSMEAEDAATYYCQQWSSNPPTFGAGTKLELK | 0.87 relative to IgG4 | 1.07 relative to IgG4 | 37300 MFI | 1.02 relative to IgG4 | 0.88 relative to IgG4 | 55200 MFI | 1.48 |
| anti-Mac-1 antibody clone 27D06 (antibody, human IgG4, V domains shown) VH: QVKLQESGAEVVKPGASVKISCKASGYSFTDYNMNWVKQSNGKSLEWIGVINPNYGTTSYNQKFKGKATLTVDQSSSTAYMQLNSLTSEDSAVYYCARTYDYDGDAFAYWGQGTTVTVSS VL: DIELTQSPALMSASPGEKVTMTCRASSSVSSNNLHWYQQKSGASPKLWIYSTSNLATGAPARFSGSGSGTSYSLTISSMEAEDAATYYCQQWNSNPPTFGGGTKLEIK | 1.05 relative to IgG4 | 1.38 relative to IgG4 | 16600 MFI | 0.99 relative to IgG4 | 1.2 relative to IgG4 | 15000 MFI | 0.9 |
| anti-Mac-1 antibody clone 27A04 (antibody, human IgG4, V domains shown) VH: QVKLQQSGPELVKPGASVKISCKASGYSFTDYNMNWVKQSNGKSLEWIGVINPNYGTTSYNQKFKGKATLTVDQSSSTAYMQLNSLTSEDSAVYYCARTYDYDGDAFAYWGQGTTVTVSS VL: DIELTQSPAIMSASPGEKVTMTCSASSSVSYMHWYQQKSGTSPKRWIYDTSKLASGVPARFSGSGSGTSYSLTISSMEAEDAATYYCQQWSSNPPTFGAGTKLELK | 0.7 relative to IgG4 | 0.88 relative to IgG4 | 39800 MFI | 1.05 relative to IgG4 | 0.78 relative to IgG4 | 36100 MFI | 0.91 |
| anti-Mac-1 antibody clone 27A06 (antibody, human IgG4, V domains shown) VH: QVKLQQSGPELVTPGASVKISCKPSGYSFTDYNMNWVKQSNGKSLEWIGEINPNYGTTRHNQKFKGKASLTVDQSSSTAYMQLISLTSEDSAVYYCARTYDYDEDAFAYWGQGTTVTVSS VL: DIELTQSPAIMSASPGEKVTMTCSASSSVSYMHWYQQKSDTSPKRWIYDTSKLASGVPARFSGSGSGTSYSLTISSMEAEDAATYYCQQWSSNPPTFGAGTKLELK | 0.85 relative to IgG4 | 0.88 relative to IgG4 | 48000 MFI | 1.04 relative to IgG4 | 0.88 relative to IgG4 | 64600 MFI | 1.35 |
| anti-Mac-1 antibody clone 27G04 (antibody, human IgG4, V domains shown) VH: QVKLQESGPELVKPGASVKISCKASGYSFTDYNMNWVKQSNGKSLEWIGVINPNYGTTSYNQKFKGKATLTVDQSSSTAYMQLNSLTSEDSAVYYCARTFDYDDDAFAYWGQGTTVTVSS VL: DIELTQSPAIMSASPGEKVTITCSASSSVSDMHWYQQKSGTSPKRWIYDTSKLASGVPARFSGSGSGTSYSLTISNMEAEDAATYYCQQWSSNPPTFGAGTKLELK | 0.89 relative to IgG4 | 1.14 relative to IgG4 | 41100 MFI | 1.11 relative to IgG4 | 1 relative to IgG4 | 43100 MFI | 1.05 |
